Source: paper PMC11723632 (PLOS Pathogens, 2024)

Target: EBOV sGP (secreted form of GP) (Zaire ebolavirus, Mayinga-76 …, UniProt P60170)
Assay: ELISA
Details: both partners purified

Chain of EBOV sGP (secreted form of GP) (P60170 33-305): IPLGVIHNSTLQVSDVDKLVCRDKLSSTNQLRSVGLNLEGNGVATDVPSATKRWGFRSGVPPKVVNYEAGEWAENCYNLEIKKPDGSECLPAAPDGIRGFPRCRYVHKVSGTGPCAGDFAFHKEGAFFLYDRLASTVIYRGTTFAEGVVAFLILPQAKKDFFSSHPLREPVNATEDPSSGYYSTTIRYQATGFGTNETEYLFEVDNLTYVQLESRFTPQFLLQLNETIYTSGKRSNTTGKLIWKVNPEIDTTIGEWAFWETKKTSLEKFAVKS

B1: Nanosota-EB1-His (VHH)
VHH: QVQLQESGGGQVQAGGSLRLSCAASGSTSVIYAMGWYRQAPGKQRELVAAITRGVGSTNYADSVKGRFTISRDNAKNTMYLQMNSLKPEDTAVYYCNARLLVAPPPYEYDYWGQGTQVTVSS
binding result: binds

B2: Nanosota-EB2-His (VHH)
VHH: QVQLQESGGGVVQAGGSLRLSCSASGRTFSNYAMAWFRQAPGKDREFAAGINYNGERTAYADSVKGRFTISRDDAKNTVYLQMNSLKPEDTAVYSCAARPWSIANLAYTYDSWGQGTQVTVSS
binding result: no binding
